What all share (assay): IEDB peptide-MHC binding, purified MHC/competitive/radioactivity; filed as Kd, often an IC50 or EC50 that approximates it; ≥ and ≤ were set here for values at or beyond the usual limits of such assays
Test [1] addresses HLA-A*11:01.
Test [2] concerns the target HLA-A*03:01.
Test [3] addresses HLA-A*31:01.
Test [4] concerns the target HLA-A*68:01.
Test [5] addresses HLA-A*33:01.
Where [6] appears, read: source organism: Vaccinia virus WR.
[7] abbreviates: source organism: SARS coronavirus Tor2.
The mark [8] stands for this setting: source organism: Mammarenavirus lassaense.

The record followed here is the Immune Epitope Database (IEDB).

For the sequence EFVMCLEAK, the dissociation constant (Kd) in test [1] (setting [6]) is 965 nM; in test [2] (setting [6]), at least 54200 nM; in test [3] (setting [6]) it was 9760 nM; in test [4] (setting [6]), 267 nM; in test [5] (setting [6]) it was 153 nM.
As to RTFNEDLFR, the Kd in test [1] (setting [6]) worked out at 15.1 nM; in test [2] (setting [6]) it was 73.5 nM; in test [3] (setting [6]) it was 17.6 nM; in test [4] (setting [6]), 22.3 nM; in test [5] (setting [6]) it was 1570 nM.
On the same counts, the results for TLILSNKLLY are 1010 nM, 1290 nM, 18000 nM, 4330 nM and 18700 nM.
Take VSDFRDYQSY: the Kd in test [1] (setting [6]) is 4640 nM; in test [2] (setting [6]) it was at least 32200 nM; in test [3] (setting [6]) it was at least 70000 nM; in test [4] (setting [6]), at least 51200 nM; in test [5] (setting [6]), at least 70000 nM.
For the sequence DAEACYIYK, the equilibrium dissociation constant (Kd) in test [1] (setting [6]) was 57.5 nM; in test [2] (setting [6]), 1350 nM; in test [3] (setting [6]), 208 nM; in test [4] (setting [6]), 49.2 nM; in test [5] (setting [6]), 234 nM.
As to GMLIYSMWGK, the Kd came to 17.5 nM in test [1] (setting [6]); 8.57 nM in test [2] (setting [6]); 271 nM in test [3] (setting [6]); 54.6 nM in test [4] (setting [6]); 9910 nM in test [5] (setting [6]).
On the same counts, the results for LSFSNTIQSY are 1370 nM, 7430 nM, at least 70000 nM, 4670 nM and at least 70000 nM.
The corresponding values for EILRNYLRLY are 2110 nM, 489 nM, 3460 nM, 512 nM and 123 nM.
The corresponding values for GSIKIKQDVR are 611 nM, 8060 nM, 281 nM, 253 nM and 2480 nM.
Regarding ELGIAIFNNR, the Kd amounted to 1470 nM in test [1] (setting [6]); 961 nM in test [2] (setting [6]); 59.9 nM in test [3] (setting [6]); 40.6 nM in test [4] (setting [6]); 160 nM in test [5] (setting [6]).
The corresponding values for VTDLENRLKK are 14.5 nM, 291 nM, at least 37700 nM, at least 31700 nM and at least 70000 nM.
The corresponding values for ELAELLEMKY are at least 29500 nM, 14200 nM, at least 50800 nM, 2840 nM and at least 70000 nM.
Regarding TTEMLSRALK, the dissociation constant Kd in test [1] (setting [7]) came out at 67.2 nM; in test [2] (setting [7]), 101 nM; in test [3] (setting [7]), 120 nM; in test [4] (setting [7]), 12.8 nM; in test [5] (setting [7]), 3910 nM.
As to YLKNYKNFDY, the equilibrium dissociation constant (Kd) is 2490 nM in test [1] (setting [6]); 4070 nM in test [2] (setting [6]); 1540 nM in test [3] (setting [6]); 7290 nM in test [4] (setting [6]); at least 70000 nM in test [5] (setting [6]).
The corresponding values for RSTIFDIVSK are 1.97 nM, 81.3 nM, 222 nM, 79.2 nM and 6500 nM.
The corresponding values for RARFIGGYIK are 16.8 nM, 629 nM, 59.4 nM, 92.9 nM and 11700 nM.
Take TLMSIISTFH: the equilibrium dissociation constant (Kd) in test [1] (setting [8]) was at least 34600 nM; in test [2] (setting [8]), 6370 nM; in test [3] (setting [8]) it was 8710 nM; in test [4] (setting [8]), 2920 nM; in test [5] (setting [8]) it was 15900 nM.
For RIVTVTTKDY, the Kd in test [1] (setting [6]) is 600 nM; in test [2] (setting [6]) it was 427 nM; in test [3] (setting [6]), 18300 nM; in test [4] (setting [6]), 1550 nM; in test [5] (setting [6]), at least 70000 nM.
